{"source": "patent US9938505B2", "about": "“Polypeptide composition and culture method for pluripotent stem cell using same” (FUJIFILM Corporation, priority 2013, dated 2018)", "key": {"[1]": {"assay": "Evaluation of adsorbability with respect to culture dish (OPA/NAC fluorescence)", "type": "physicochemical", "conditions": "FIG. 1", "description": "Each of the polypeptides obtained as above was diluted with a predetermined buffer such that they could be added to wells at a predetermined final concentration of 0 pmol/cm^2 to 200 pmol/cm^2. Thereafter, each of the polypeptides was added in an amount of 64 μL to a plasma-treated 96-well plate made of polystyrene (Tissue Culture-Treated, Falcon). Each of the polypeptides was allowed to adsorbed onto the plate by being incubated for 2 hours at 37° C., and then the wells were washed twice with PBS, thereby obtaining surfaces coated with each of the polypeptides of RCP-1 to RCP-16.\nAmong the surfaces coated with each of the polypeptides obtained as above, the surfaces coated with RCP-1 and RCP-11 to RCP-16 were applied with 64 μL of a borate buffer and 64 μL of 1 N NaOH, followed by incubation for 24 hours at 80° C. and 100% humidity. […] After incubation for 30 minutes at 40° C., the fluorescence intensity thereof was measured by using an ENVISION MULTILABEL COUNTER (trade name, PerkinElmer Inc.) (excitation 355 nm/fluorescence 486 nm). […]"}, "iPS cells": {"tested_on": "iPS cells", "assay": "Cell growth property evaluation 2 (ALP activity, 72 hours)", "type": "cell-based, human", "conditions": "for Number of cells (%/LN-511): same method as Cell growth property evaluation 2, Table 13", "description": "Each of the polypeptide liquids was added to the respective wells of a plasma-treated 96-well plate (BD Falcon) made of polystyrene having a plasma-treated cell culture surface, and the plate was held as it is for 2 hours at 37° C. such that the polypeptide was adsorbed thereonto, thereby obtaining a peptide-treated 96-well plate having a polypeptide-coated surface. Into the respective wells of the obtained peptide-treated 96-well plate, iPS cells suspended in a medium obtained by mixing TeSR2 (Stemcell Technologies Inc.) with NUTRISTEM (registered trademark, Bio Industries Inc.) at 1:1 (volume ratio) were seeded at a cell density of 10,000 cells/well. After 72 hours of culture, nonadhesive cells were washed off with PBS, and only adhesive cells were immobilized using 4% by mass paraformaldehyde (Wako Pure Chemical Industries, Ltd.). By using an ATTOPHOS (registered trademark) AP FLUORESCENT SUBSTRATE SYSTEM (Promega Corporation), the ALP activity was calculated, and from the calibration curve, the number of undifferentiated iPS cells having the ALP activity was calculated. In Table 11, the cell growth rate is expressed as a ratio calculated by regarding the number of cells after 72 hours of culture using recombinant laminin as being 100%. n=3.\nBy the same method as described in <Cell growth property evaluation 2> of Example 3, the cell growth properties of the polypeptide compositions II-1 and II-2 was evaluated. […] That is, it was understood that the polypeptide in which Cys 25, Cys 31, and the intramolecular cross-linking structure bind with each other is excellent in the cell growth activity."}, "[2]": {"molecular_target": "T1, Plasminogen Activator Inhibitor-1 (PAI-1) (Homo sapiens, UniProt P05121)", "T1 construct": "purchased R & D Systems Inc 1786-PI", "T1 sequence (P05121 24-402)": "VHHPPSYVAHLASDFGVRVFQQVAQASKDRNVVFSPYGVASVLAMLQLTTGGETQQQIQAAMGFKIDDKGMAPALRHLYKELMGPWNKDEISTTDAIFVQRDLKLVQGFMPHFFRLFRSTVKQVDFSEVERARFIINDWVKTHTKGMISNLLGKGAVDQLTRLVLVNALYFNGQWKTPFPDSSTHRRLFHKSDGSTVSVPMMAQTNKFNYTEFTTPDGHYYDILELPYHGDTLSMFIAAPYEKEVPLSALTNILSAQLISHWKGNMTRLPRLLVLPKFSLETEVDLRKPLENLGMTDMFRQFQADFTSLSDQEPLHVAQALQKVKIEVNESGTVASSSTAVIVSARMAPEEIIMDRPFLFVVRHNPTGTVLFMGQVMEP", "assay": "Evaluation of PAI-1 binding properties (plate assay, Scatchard plot)", "conditions": "for Binding constant: KA from slope of Scatchard plot, PAI-1 170 nM to 2.6 nM, RCP-5 immobilized from 100 μg/ml", "description": "By using a Plasminogen Activator Inhibitor-1 (PAI-1) known to bind with a polypeptide having a structure in which Cys 25 and Cys 31 are cross-linked to each other, detection of the cross-linking structure of Cys 25 and Cys 31 was tried.\nThe polypeptide compositions II-1 and II-2 (100 μg/ml) were added to a flat-bottomed black 96-well plate (half-Area) made of polystyrene at 64 μL/well. The entirety of the plate was covered with a sealing film (Funakoshi Co., Ltd.) and left to stand at 4° C. such that RCP-5 in each of the polypeptide compositions was immobilized. After 12 hours, the liquid in the wells was discarded, and TBS (NIPPON GENE CO., LTD.) containing 5% Bovine Serum Albumin (Sigma-Aldrich Co, LLC.) was added thereto at 150 μL/well. The plate was left to stand for 1 hour at 37° C., and then the liquid in the wells was discarded. Furthermore, BLOCKER CASEIN (trade name, Thermo Scientific Inc.) was added thereto at 150 μL/well, and the plate was left to stand at 37° C. as above so as to performing blocking. After 1 hour, TBS (TBST) containing 0.05% Tween 20 was added thereto at 150 μL/well, and the liquid was continuously discarded from the wells. By performing the above operation 4 times in total, the inside of the wells was washed.\nThen, a solution of recombinant PAI-1 (catalog number 1786-PI, R & D Systems Inc) serially diluted with TBS from 170 nM to 2.6 nM at the same factor was added to the respective well at 50 μL/well, and the plate was left to stand at 37° C. After 1 hour, the PAI-1 solution was discarded from the wells, and the wells were washed with TBST 4 times in total by the same method as described above, thereby removing unbound PAI-1. […]\nFurthermore, an undiluted solution of HRP-labeled anti-goat IgG antibodies (catalog number 81-1620, Life Technologies) was diluted 7,500-fold with TBS and added to the wells at 100 μL/well. […] The excitation wavelength and the fluorescence wavelength were set to be 330 nm and 410 nm respectively, and the binding of RCP-5 to PAI-1 was measured as a relative fluorescence unit by using ENVISION (trade name, PerkinElmer Inc). […]"}}}
{"molecule": "RCP-14: recombinant polypeptide SEQ ID NO: 27; human vitronectin positions 1-55 (GPLGDQESCKGRCTEGFNVDKKCQCDELCSYYQSCCTDYTAECKPQVTRGDVFTMPEDE; Synthetic peptide RCP-14)", "values": [{"measurement": "amount adsorbed onto the plate, as fraction of the amount of the polypeptide including SEQ ID NO: 3", "setting": "[1]", "result": "about ¼"}]}
{"molecule": "RCP-13: recombinant polypeptide SEQ ID NO: 26; human vitronectin positions 1-55, 56-130 (protein, Synthetic peptide RCP-13) GPLGDQESCKGRCTEGFNVDKKCQCDELCSYYQSCCTDYTAECKPQVTRGDVFTMPEDEYTVYDDGEEKNNATVHEQVGGPSLTSDLQAQSKGNPEQTPVLKPEEEAPAPEVGASKPEGIDSRPETLHPGRPQP", "values": [{"measurement": "amount adsorbed onto the plate, as fraction of the amount of the polypeptide including SEQ ID NO: 3", "setting": "[1]", "result": "about ¼"}]}
{"molecule": "II-1: polypeptide composition containing RCP-5 after reduction treatment with Tris(2-carboxyethyl)phosphine Hydrochloride and dialysis (protein) MDQESCKGRCTEGFNVDKKCQCDELCSYYQSCCTDYTAECKPQVTRGDVFTMPEDEFWGRTSAGTRQPQFISRDWHGVPGQVDAAMAGRIYISGMAPRPSLAKKQRFRHRNRKGYRSQRGHSRGRNQN", "values": [{"measurement": "cell growth properties (in words)", "setting": "iPS cells; comparison of compositions", "result": "better than that of the polypeptide composition II-2"}, {"measurement": "Number of cells (%/LN-511)", "setting": "iPS cells", "result": "107 ± 47", "unit": "%/LN-511"}, {"measurement": "Binding constant", "setting": "[2]", "result": 0.22}, {"measurement": "binding constant of PAI-1 (in words)", "setting": "[2]; comparison of compositions", "result": "greater"}]}
{"molecule": "II-2: comparative polypeptide composition containing RCP-5, frozen at −80° C. without being treated, then dialyzed (protein) MDQESCKGRCTEGFNVDKKCQCDELCSYYQSCCTDYTAECKPQVTRGDVFTMPEDEFWGRTSAGTRQPQFISRDWHGVPGQVDAAMAGRIYISGMAPRPSLAKKQRFRHRNRKGYRSQRGHSRGRNQN", "values": [{"measurement": "Number of cells (%/LN-511)", "setting": "iPS cells", "result": "79 ± 5", "unit": "%/LN-511"}, {"measurement": "Binding constant", "setting": "[2]", "result": 0.06}]}
